Target: T1, Human TrkA Extracellular Domain Isoform 2 (33-408) (human, UniProt P04629 33-414)
T1 construct: SPR analyte; also called Human TrkA Isoform 2
Assay: SPR, mAb captured on Protein A chip, 37 C
Procedure: Antibodies are captured onto a Series-S Sensor Protein A CM5 chip (GE Healthcare). For each channel, Flow Cell 1 (FC1) is designated as a buffer reference and Flow Cell 2 (FC2) is designated for antibody capture. All FC2 on all eight channels are set to capture approximately 89 response units (RU) of antibody at a flow rate of 10 μL/min. All antibody samples are prepared at 5 μg/mL by dilution into the running buffer. […] Before the analysis cycle, the chip is regenerated with 3 injections of glycine (pH ˜1.5) at 100 μL/min for a contact time of 15 seconds on FC1 and FC2 in order to clean the surface of the chip. […] This is repeated for each antibody evaluated. Data is processed using predefined antibody parallel kinetics with reference subtraction and fit to a 1:1 binding model using BIACORE™ 8K evaluation software (version 1.1.1.7442) to determine the association rate (on-rate, kon, M⁻¹s⁻¹ units) and the dissociation rate (off-rate, koff, s⁻¹ units). The equilibrium dissociation constant (KD) is calculated from the relationship KD=koff/kₒₙ, in molar units. The average (Avg) KD and error, reported as the standard deviation (SD), is determined from three independent experiments.

T1 sequence (P04629 other isoform, or with tags, fused parts or gaps): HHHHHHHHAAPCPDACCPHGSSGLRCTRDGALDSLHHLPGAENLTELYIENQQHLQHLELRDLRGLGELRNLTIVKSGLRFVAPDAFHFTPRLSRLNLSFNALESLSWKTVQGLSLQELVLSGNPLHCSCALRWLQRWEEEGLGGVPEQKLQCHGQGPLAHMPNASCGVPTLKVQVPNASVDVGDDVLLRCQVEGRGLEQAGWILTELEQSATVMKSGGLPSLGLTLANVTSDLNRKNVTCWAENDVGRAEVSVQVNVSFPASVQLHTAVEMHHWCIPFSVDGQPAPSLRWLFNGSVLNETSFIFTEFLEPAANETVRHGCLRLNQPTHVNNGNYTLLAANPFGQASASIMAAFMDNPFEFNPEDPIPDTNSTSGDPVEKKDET

B1: mAb B (antibody, human IgG4 S228P, kappa, F234A L235A)
heavy: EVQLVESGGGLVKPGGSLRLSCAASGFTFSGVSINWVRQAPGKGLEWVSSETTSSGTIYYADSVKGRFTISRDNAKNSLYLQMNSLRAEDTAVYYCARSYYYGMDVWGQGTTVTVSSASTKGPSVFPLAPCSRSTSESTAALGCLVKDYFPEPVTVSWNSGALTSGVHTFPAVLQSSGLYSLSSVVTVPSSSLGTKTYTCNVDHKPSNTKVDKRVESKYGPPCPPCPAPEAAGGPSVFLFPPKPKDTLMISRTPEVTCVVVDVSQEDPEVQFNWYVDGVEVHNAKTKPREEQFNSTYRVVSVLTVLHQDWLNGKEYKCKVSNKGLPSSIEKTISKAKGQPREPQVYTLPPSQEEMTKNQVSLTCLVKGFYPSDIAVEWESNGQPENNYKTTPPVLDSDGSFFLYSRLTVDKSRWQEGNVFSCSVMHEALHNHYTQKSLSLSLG
light: DIVMTQTPLSSPVTLGQPASISCRSSQSLVHRAGNTYLSWLQQRPGQPPRLLIYKISNRFSGVPDRFSGSGAGTDFTLKISRVEAEDVGVYYCMQARQFPLTFGGGTKVEIKRTVAAPSVFIFPPSDEQLKSGTASVVCLLNNFYPREAKVQWKVDNALQSGNSQESVTEQDSKDSTYSLSSTLTLSKADYEKHKVYACEVTHQGLSSPVTKSFNRGEC
notes: Human IgG4PAA/Kappa
Binder B1 has a Kd of 7.7 nM, a koff of 0.0012 s⁻¹ and a kon of 160000 M⁻¹ s⁻¹.
